According to patent publication EP2103936A1 (Institut Pasteur, dated 2009):
Several values for one entry are separate records, joined by “and”; a condition that tells them apart may be missing. Identical values can stand only once.

Target: maltose binding protein MalE from E. coli (Escherichia coli, UniProt P0AEX9 27-396 = MBP)

B1: DarpOff7(wt) (designed binder)
chain: MRGSHHHHHHGSDLGRKLLEAARAGQDDEVRILMANGADVNAADNTGTTPLHLAAYSGHLEIVEVLLKHGADVDASDVFGYTPLHLAAYWGHLEIVEVLLKNGADVNAMDSDGMTPLHLAAKWGYLEIVEVLLKHGADVNAQDKFGKTAFDISIDNGNEDLAEILQKLN
Kd: 11 nM and 5.6 nM
